Paper PMC7865324

Target: citrate synthase (CS) from porcine heart (porcine) (UniProt P00889)
Chain of UniProt P00889 (P00889 28-464): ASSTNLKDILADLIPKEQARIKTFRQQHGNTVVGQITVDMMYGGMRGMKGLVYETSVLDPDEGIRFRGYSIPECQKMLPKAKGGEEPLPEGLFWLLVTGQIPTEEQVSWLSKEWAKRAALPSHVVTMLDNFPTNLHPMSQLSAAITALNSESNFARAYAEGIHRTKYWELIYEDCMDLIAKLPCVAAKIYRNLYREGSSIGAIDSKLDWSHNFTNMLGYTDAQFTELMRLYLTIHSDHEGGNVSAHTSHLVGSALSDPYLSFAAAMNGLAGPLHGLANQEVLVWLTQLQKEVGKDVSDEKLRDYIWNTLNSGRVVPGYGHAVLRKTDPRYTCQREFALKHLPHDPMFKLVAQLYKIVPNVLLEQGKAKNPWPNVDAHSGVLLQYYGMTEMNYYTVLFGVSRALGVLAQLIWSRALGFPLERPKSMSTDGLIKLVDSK

- citrate synthase thermal aggregation assay (OD360, 42 °C, 1 h): percent of CS kept soluble, ZnJ6:CS 0.1:1 to 10:1: 86%
Substance: recombinant ZnJ6 (Cre06.g251716.t1.2) fused to the streptavidin-binding peptide (SBP) tag (natural protein)
